According to the supplement of paper PMC10567573:

B1: ZER1 (parent)
chain: KEMARKVIEHCSNFKEENMDTSR
B2: ZNF75A (parent)
chain: RTHTGEQPYTCSICRRNFSRRSSL

Variants of: B1
Test: protein stability index of a GFP-peptide fusion (GPS, HEK-293T) (PSI 1-6); higher = more stable
Conditions: c terminus: native
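Also: lentivirally expressed fusions sorted by FACS into six bins by GFP to DsRed ratio, PSI derived from sequencing read proportions per bin multiplied by bin number.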

Row | Variant | protein stability index
1 | KEKARKVIEHCSNFKEENMDTSR [M3K] | 4.36
2 | KEFARKVIEHCSNFKEENMDTSR [M3F] | 1.72
3 | KETARKVIEHCSNFKEENMDTSR [M3T] | 4.3
4 | KELARKVIEHCSNFKEENMDTSR [M3L] | 3.52
5 | KESARKVIEHCSNFKEENMDTSR [M3S] | 4.64
6 | KEPARKVIEHCSNFKEENMDTSR [M3P] | 4.78
7 | KEYARKVIEHCSNFKEENMDTSR [M3Y] | 3.29
8 | KECARKVIEHCSNFKEENMDTSR [M3C] | 4.08
9 | KENARKVIEHCSNFKEENMDTSR [M3N] | 4.14
10 | KEWARKVIEHCSNFKEENMDTSR [M3W] | 2.28
11 | KEEARKVIEHCSNFKEENMDTSR [M3E] | 4.53
12 | KERARKVIEHCSNFKEENMDTSR [M3R] | 3.98
13 | KEDARKVIEHCSNFKEENMDTSR [M3D] | 4.86
14 | KEGARKVIEHCSNFKEENMDTSR [M3G] | 4.37
15 | KEIARKVIEHCSNFKEENMDTSR [M3I] | 3.29
16 | KEVARKVIEHCSNFKEENMDTSR [M3V] | 4.22
17 | KEQARKVIEHCSNFKEENMDTSR [M3Q] | 4.45
18 | KEAARKVIEHCSNFKEENMDTSR [M3A] | 4.49
19 | KEHARKVIEHCSNFKEENMDTSR [M3H] | 4.05
20 | KEMIRKVIEHCSNFKEENMDTSR [A4I] | 2.32
21 | KEMERKVIEHCSNFKEENMDTSR [A4E] | 4.39
22 | KEMFRKVIEHCSNFKEENMDTSR [A4F] | 1.9

Row | Variant | protein stability index
23 | KEMCRKVIEHCSNFKEENMDTSR [A4C] | 3.02
24 | KEMHRKVIEHCSNFKEENMDTSR [A4H] | 4.02
25 | KEMDRKVIEHCSNFKEENMDTSR [A4D] | 4.48
26 | KEMGRKVIEHCSNFKEENMDTSR [A4G] | 4.45
27 | KPMARKVIEHCSNFKEENMDTSR [E2P] | 4.13
28 | KIMARKVIEHCSNFKEENMDTSR [E2I] | 3.27
29 | KWMARKVIEHCSNFKEENMDTSR [E2W] | 2.01
30 | KQMARKVIEHCSNFKEENMDTSR [E2Q] | 3.53
31 | KLMARKVIEHCSNFKEENMDTSR [E2L] | 2.76
32 | KHMARKVIEHCSNFKEENMDTSR [E2H] | 3.12
33 | KCMARKVIEHCSNFKEENMDTSR [E2C] | 3.12
34 | KRMARKVIEHCSNFKEENMDTSR [E2R] | 3.57
35 | KVMARKVIEHCSNFKEENMDTSR [E2V] | 3.52
36 | KYMARKVIEHCSNFKEENMDTSR [E2Y] | 2.35
37 | KMMARKVIEHCSNFKEENMDTSR [E2M] | 3.42
38 | KDMARKVIEHCSNFKEENMDTSR [E2D] | 3.25
39 | KNMARKVIEHCSNFKEENMDTSR [E2N] | 3.4
40 | KGMARKVIEHCSNFKEENMDTSR [E2G] | 2.82
41 | KFMARKVIEHCSNFKEENMDTSR [E2F] | 2.11
42 | KSMARKVIEHCSNFKEENMDTSR [E2S] | 2.74
43 | KAMARKVIEHCSNFKEENMDTSR [E2A] | 3.23
44 | KKMARKVIEHCSNFKEENMDTSR [E2K] | 3.44

Row | Variant | protein stability index
45 | KTMARKVIEHCSNFKEENMDTSR [E2T] | 3.39
46 | FEMARKVIEHCSNFKEENMDTSR [K1F] | 2.86
47 | QEMARKVIEHCSNFKEENMDTSR [K1Q] | 4.3
48 | IEMARKVIEHCSNFKEENMDTSR [K1I] | 2.95
49 | SEMARKVIEHCSNFKEENMDTSR [K1S] | 3.87
50 | AEMARKVIEHCSNFKEENMDTSR [K1A] | 3.7
51 | PEMARKVIEHCSNFKEENMDTSR [K1P] | 3.36
52 | DEMARKVIEHCSNFKEENMDTSR [K1D] | 4.45
53 | VEMARKVIEHCSNFKEENMDTSR [K1V] | 3.26
54 | YEMARKVIEHCSNFKEENMDTSR [K1Y] | 3.31
55 | LEMARKVIEHCSNFKEENMDTSR [K1L] | 2.73
56 | GEMARKVIEHCSNFKEENMDTSR [K1G] | 4.12
57 | HEMARKVIEHCSNFKEENMDTSR [K1H] | 4.3
58 | REMARKVIEHCSNFKEENMDTSR [K1R] | 4.31
59 | CEMARKVIEHCSNFKEENMDTSR [K1C] | 2.6
60 | MEMARKVIEHCSNFKEENMDTSR [K1M] | 2.75
61 | TEMARKVIEHCSNFKEENMDTSR [K1T] | 3.65
62 | NEMARKVIEHCSNFKEENMDTSR [K1N] | 4.24
63 | WEMARKVIEHCSNFKEENMDTSR [K1W] | 2.98
64 | EEMARKVIEHCSNFKEENMDTSR [K1E] | 4.81

Variants of: B2
Test: as above
Conditions: c terminus: a fixed tail appended

Row | Variant | protein stability index
65 | RTHTGEQPYTCSICRRNFLRRSSL [S19L] | 2.51
66 | RTHTGEQPYTCSICRRNFPRRSSL [S19P] | 2.23
67 | RTHTGEQPYTCSICRRNFCRRSSL [S19C] | 2.52
68 | RTHTGEQPYTCSICRRNFARRSSL [S19A] | 2.04
69 | RTHTGEQPYTCSICRRNFIRRSSL [S19I] | 3.39
70 | RTHTGEQPYTCSICRRNFWRRSSL [S19W] | 2.21
71 | RTHTGEQPYTCSICRRNFHRRSSL [S19H] | 2.62
72 | RTHTGEQPYTCSICRRNFDRRSSL [S19D] | 2.67
73 | RTHTGEQPYTCSICRRNFNRRSSL [S19N] | 3.59
74 | RTHTGEQPYTCSICRRNFERRSSL [S19E] | 3.05
75 | RTHTGEQPYTCSICRRNFMRRSSL [S19M] | 2.68
76 | RTHTGEQPYTCSICRRNFGRRSSL [S19G] | 2.68
77 | RTHTGEQPYTCSICRRNFVRRSSL [S19V] | 2.4
78 | RTHTGEQPYTCSICRRNFKRRSSL [S19K] | 2.91
79 | RTHTGEQPYTCSICRRNFRRRSSL [S19R] | 2.99
80 | RTHTGEQPYTCSICRRNFTRRSSL [S19T] | 3.25

Row | Variant | protein stability index
81 | RTHTGEQPYTCSICRRNFYRRSSL [S19Y] | 4.33
82 | RTHTGEQPYTCSICRRNFQRRSSL [S19Q] | 2.72
83 | RTHTGEQPYTCSICRRNFFRRSSL [S19F] | 2.59
84 | RTHTGEQPYTCSICRRNKSRRSSL [F18K] | 2.6
85 | RTHTGEQPYTCSICRRNPSRRSSL [F18P] | 2.14
86 | RTHTGEQPYTCSICRRNNSRRSSL [F18N] | 2.29
87 | RTHTGEQPYTCSICRRNVSRRSSL [F18V] | 2.8
88 | RTHTGEQPYTCSICRRNWSRRSSL [F18W] | 2.31
89 | RTHTGEQPYTCSICRRNLSRRSSL [F18L] | 2.21
90 | RTHTGEQPYTCSICRRNRSRRSSL [F18R] | 3.99
91 | RTHTGEQPYTCSICRRNYSRRSSL [F18Y] | 2.61
92 | RTHTGEQPYTCSICRRNQSRRSSL [F18Q] | 2.41
93 | RTHTGEQPYTCSICRRNSSRRSSL [F18S] | 2.69
94 | RTHTGEQPYTCSICRRNTSRRSSL [F18T] | 2.28
95 | RTHTGEQPYTCSICRRNMSRRSSL [F18M] | 2.49
